Measured values reported in PMC5764468 (PLoS Biology, 2017).

Target: T1, Human calmodulin (CaM) (human, UniProt P0DP23 1-149)
T1 construct: also called full-length CaM
Test: SEC-SAXS
Conditions: both partners purified

B1: CaM-binding peptide (P_(MLCK)) from the smooth muscle myosin light-chain kinase (peptide)
peptide: Ac-RRKWQKTGHAVRAIGRLSS-NH2
notes: also called myosin light-chain kinase peptide; MLCK peptide
stoichiometry N: 1 P_(MLCK) per CaM
